The labels stand for the following.
B1: TRIM39 (parent)
chain: CKACITRWWEDLERDFPCPVCRKT
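Also: lentivirally expressed fusions sorted by FACS into six bins by GFP to DsRed ratio, PSI derived from sequencing read proportions per bin multiplied by bin number.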

The data set covers variants of B1. Nature of the data set: protein stability index of a GFP-peptide fusion (GPS, HEK-293T) (PSI 1-6); higher = more stable. To be noted: c terminus: a fixed tail appended.
For CKACITRWWEDLERDFPCPVCRRT [K23R], the protein stability index is 3.25.

For CKACITRWWEDLERDFPCPVCRKY [T24Y], the protein stability index was 3.74. Turning to CKACITRWWEDLERDFPCPVCRKD [T24D], the protein stability index is 4.83. For the variant CKACITRWWEDLERDFPCPVCRKS [T24S], the protein stability index was 4.03.

As to CKACITRWWEDLERDFPCPVCRKQ [T24Q], the protein stability index came out at 4.21. As to CKACITRWWEDLERDFPCPVCRKA [T24A], the protein stability index amounted to 4.07.

Take CKACITRWWEDLERDFPCPVCRKE [T24E]: the protein stability index was 3.98.

Regarding CKACITRWWEDLERDFPCPVCRKK [T24K], the protein stability index came out at 3.83.

For the variant CKACITRWWEDLERDFPCPVCRKG [T24G], the protein stability index is 4.24. Under CKACITRWWEDLERDFPCPVCRKC [T24C] stands 2.75; under CKACITRWWEDLERDFPCPVCRKV [T24V], 3.57. Under CKACITRWWEDLERDFPCPVCRKR [T24R] stands 3.67. Consider CKACITRWWEDLERDFPCPVCRKP [T24P], for which the protein stability index came out at 2.78. Take CKACITRWWEDLERDFPCPVCRKI [T24I]: the protein stability index came out at 3.57.

In the case of CKACITRWWEDLERDFPCPVCRKM [T24M], the protein stability index was 3.76. Under CKACITRWWEDLERDFPCPVCRKH [T24H] stands 3.58; under CKACITRWWEDLERDFPCPVCRKL [T24L], 3.78; under CKACITRWWEDLERDFPCPVCRKW [T24W], 3.02. For CKACITRWWEDLERDFPCPVCRKN [T24N], the protein stability index stood at 3.61. Under CKACITRWWEDLERDFPCPVCRKF [T24F] stands 3.03; under CKACITRWWEDLERDFPTPVCRKT [C18T], 1.39; under CKACITRWWEDLERDFPSPVCRKT [C18S], 1.88. Under CKACITRWWEDLERDFPFPVCRKT [C18F] stands 2.34; under CKACITRWWEDLERDFPEPVCRKT [C18E], 1.94; under CKACITRWWEDLERDFPMPVCRKT [C18M], 1.42. Consider CKACITRWWEDLERDFPPPVCRKT [C18P], for which the protein stability index came to 2.25.

Take CKACITRWWEDLERDFPRPVCRKT [C18R]: the protein stability index was determined as 2.02. On to CKACITRWWEDLERDFPGPVCRKT [C18G], for which the protein stability index came out at 1.77. As for CKACITRWWEDLERDFPWPVCRKT [C18W], the protein stability index came to 1.11.

Take CKACITRWWEDLERDFPYPVCRKT [C18Y]: the protein stability index came to 2.02. Consider CKACITRWWEDLERDFPVPVCRKT [C18V], for which the protein stability index was 1.28. With CKACITRWWEDLERDFPNPVCRKT [C18N], the protein stability index stood at 1.24.

For the variant CKACITRWWEDLERDFPIPVCRKT [C18I], the protein stability index stood at 1.79. For CKACITRWWEDLERDFPQPVCRKT [C18Q], the protein stability index was determined as 2.53. Take CKACITRWWEDLERDFPHPVCRKT [C18H]: the protein stability index came to 1.54.

For the variant CKACITRWWEDLERDFPLPVCRKT [C18L], the protein stability index was found to be 2.41. On to CKACITRWWEDLERDFPDPVCRKT [C18D], for which the protein stability index turned out to be 1.71. As for CKACITRWWEDLERDFPKPVCRKT [C18K], the protein stability index turned out to be 1.38. On to CKACITRWWEDLERDFLCPVCRKT [P17L], for which the protein stability index is 3.85. For CKACITRWWEDLERDFFCPVCRKT [P17F], the protein stability index turned out to be 4.25.

With CKACITRWWEDLERDFKCPVCRKT [P17K], the protein stability index was 4.06. CKACITRWWEDLERDFACPVCRKT [P17A]: the protein stability index was found to be 3.55. Under CKACITRWWEDLERDFECPVCRKT [P17E] stands 4.41; under CKACITRWWEDLERDFTCPVCRKT [P17T], 3.97. Under CKACITRWWEDLERDFRCPVCRKT [P17R] stands 4.27; under CKACITRWWEDLERDFDCPVCRKT [P17D], 3.5; under CKACITRWWEDLERDFICPVCRKT [P17I], 3.97. For CKACITRWWEDLERDFGCPVCRKT [P17G], the protein stability index is 3.46.

On to CKACITRWWEDLERDFCCPVCRKT [P17C], for which the protein stability index turned out to be 3.98.

Take CKACITRWWEDLERDFHCPVCRKT [P17H]: the protein stability index came out at 4.

For CKACITRWWEDLERDFYCPVCRKT [P17Y], the protein stability index was determined as 3.9. Take CKACITRWWEDLERDFQCPVCRKT [P17Q]: the protein stability index came to 4.2.

On to CKACITRWWEDLERDFMCPVCRKT [P17M], for which the protein stability index worked out at 4.09.

CKACITRWWEDLERDFSCPVCRKT [P17S]: the protein stability index amounted to 4.2. As for CKACITRWWEDLERDFNCPVCRKT [P17N], the protein stability index turned out to be 4.27. Regarding CKACITRWWEDLERDFVCPVCRKT [P17V], the protein stability index was 4.35. With CKACITRWWEDLERDFWCPVCRKT [P17W], the protein stability index was determined as 3.49. Under CKACITRWWEDLERDFPCPTCRKT [V20T] stands 4.4; under CKACITRWWEDLERDFPCPMCRKT [V20M], 3.37; under CKACITRWWEDLERDFPCPICRKT [V20I], 4.22. Under CKACITRWWEDLERDFPCPKCRKT [V20K] stands 4.19; under CKACITRWWEDLERDFPCPECRKT [V20E], 4.77. Under CKACITRWWEDLERDFPCPSCRKT [V20S] stands 4.3.

For the variant CKACITRWWEDLERDFPCPRCRKT [V20R], the protein stability index came to 3.99. In the case of CKACITRWWEDLERDFPCPHCRKT [V20H], the protein stability index is 3.88. For the variant CKACITRWWEDLERDFPCPPCRKT [V20P], the protein stability index is 2.36.

Consider CKACITRWWEDLERDFPCPCCRKT [V20C], for which the protein stability index is 3.44. CKACITRWWEDLERDFPCPLCRKT [V20L]: the protein stability index came out at 4.16. For the variant CKACITRWWEDLERDFPCPACRKT [V20A], the protein stability index is 4.24.

On to CKACITRWWEDLERDFPCPFCRKT [V20F], for which the protein stability index is 3.78.

Turning to CKACITRWWEDLERDFPCPYCRKT [V20Y], the protein stability index came to 3.73. As for CKACITRWWEDLERDFPCPNCRKT [V20N], the protein stability index was 4.37.

As for CKACITRWWEDLERDFPCPDCRKT [V20D], the protein stability index is 4.55. For the variant CKACITRWWEDLERDFPCPWCRKT [V20W], the protein stability index came out at 3.56. Regarding CKACITRWWEDLERDFPCPQCRKT [V20Q], the protein stability index turned out to be 4.09. Under CKACITRWWEDLERDFPCPGCRKT [V20G] stands 3.39; under CKACITRWWEDLERDFPCCVCRKT [P19C], 2.26; under CKACITRWWEDLERDFPCRVCRKT [P19R], 2.82. As to CKACITRWWEDLERDFPCSVCRKT [P19S], the protein stability index stood at 3.47. Take CKACITRWWEDLERDFPCYVCRKT [P19Y]: the protein stability index was 2.27.

Consider CKACITRWWEDLERDFPCHVCRKT [P19H], for which the protein stability index stood at 3.35.

On to CKACITRWWEDLERDFPCEVCRKT [P19E], for which the protein stability index was determined as 3.55.

Regarding CKACITRWWEDLERDFPCTVCRKT [P19T], the protein stability index came to 3.35.

On to CKACITRWWEDLERDFPCVVCRKT [P19V], for which the protein stability index worked out at 2.94. Take CKACITRWWEDLERDFPCAVCRKT [P19A]: the protein stability index was 3.15. Under CKACITRWWEDLERDFPCIVCRKT [P19I] stands 2.3.

For the variant CKACITRWWEDLERDFPCFVCRKT [P19F], the protein stability index amounted to 1.95. With CKACITRWWEDLERDFPCNVCRKT [P19N], the protein stability index stood at 3.29. Under CKACITRWWEDLERDFPCLVCRKT [P19L] stands 2.65. As for CKACITRWWEDLERDFPCDVCRKT [P19D], the protein stability index stood at 3.85.

In the case of CKACITRWWEDLERDFPCQVCRKT [P19Q], the protein stability index turned out to be 3.12.

On to CKACITRWWEDLERDFPCKVCRKT [P19K], for which the protein stability index was determined as 2.69. Under CKACITRWWEDLERDFPCMVCRKT [P19M] stands 2.88; under CKACITRWWEDLERDFPCWVCRKT [P19W], 2.1.

CKACITRWWEDLERDFPCGVCRKT [P19G]: the protein stability index stood at 2.86.

Values taken from the supplement of paper PMC10567573.
